Consider eleven molecules from publication PMC12218292 (Nature Communications, 2025).

One assay concerns the target Rad51 (in yeast cells) (UniProt P25454). Briefly: co-immunoprecipitation (co-IP). As to conditions: read off a plot.
The target in assay [1] is T1, Rad51 (S. cerevisiae), P25454.
T1 chain: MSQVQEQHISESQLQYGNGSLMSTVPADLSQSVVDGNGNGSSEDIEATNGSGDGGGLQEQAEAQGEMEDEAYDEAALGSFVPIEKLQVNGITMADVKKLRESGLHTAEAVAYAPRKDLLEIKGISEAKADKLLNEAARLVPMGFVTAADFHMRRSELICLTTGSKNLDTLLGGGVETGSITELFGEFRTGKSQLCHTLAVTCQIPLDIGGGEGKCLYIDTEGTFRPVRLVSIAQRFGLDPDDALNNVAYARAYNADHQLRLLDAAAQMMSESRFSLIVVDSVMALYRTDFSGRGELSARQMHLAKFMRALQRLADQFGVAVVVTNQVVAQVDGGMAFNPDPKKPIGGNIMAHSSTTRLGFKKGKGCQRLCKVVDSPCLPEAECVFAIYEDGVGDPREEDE
The experiment in a line: SEC-SAXS; Rad51 + Rad52 (295–408) 1:1; SWING beamline in SEC mode, Superdex 5/150 GL column; peak deconvolution; molecular weight from SAXS. The settings on record: remark: other sources report otherwise. (In gel filtration, larger molecules generally elute earlier.)

A further assay concerns the target T2, Rad52 (295–408) (S. cerevisiae, UniProt P06778 295-408, uniform 15N labelling).
T2 construct: numbered from the first AUG codon in RAD52 mRNA (protein of 471 residues); Cloned in pETM30; also called Rad52C-ter; Rad52-Cter; source: E. coli BL21(DE3), purified (GSH-sepharose, TEV cleavage, Ni Sepharose, PD10)
The description is as above. The settings on record: both partners purified.

T2 sequence (P06778 295-408): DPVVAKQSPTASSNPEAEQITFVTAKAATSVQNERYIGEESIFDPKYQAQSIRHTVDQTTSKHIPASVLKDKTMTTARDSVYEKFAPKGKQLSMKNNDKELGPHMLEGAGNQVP

As for Rad52-FLAG (from UniProt P06778) S374, in the assay with Rad51 (in yeast cells), the other: interaction loss by coIP (%) is 33%.

In the assay with Rad51 (in yeast cells), Rad52-FLAG (from UniProt P06778) P381 had an other: interaction loss by coIP (%) of 79%.

Turning to Rad52-FLAG (from UniProt P06778) V317, in the assay with Rad51 (in yeast cells), the other: interaction loss by coIP (%) turned out to be 80%.

In the assay with Rad51 (in yeast cells), Rad52-FLAG (from UniProt P06778) A319 showed an other: interaction loss by coIP (%) of 99%.

With Rad52-FLAG (from UniProt P06778) V325, the other: interaction loss by coIP (%) in the assay with Rad51 (in yeast cells) was determined as 89%.

The molecule Rad52-FLAG (from UniProt P06778) S355 showed an other: interaction loss by coIP (%) with Rad51 (in yeast cells) of 100%.

Molecule Rad52-FLAG (from UniProt P06778) V350 yielded an other: interaction loss by coIP (%) with Rad51 (in yeast cells) of 49%.

Take Rad52-FLAG (from UniProt P06778) V358E: the other: interaction loss by coIP (%) with Rad51 (in yeast cells) stood at 100%.

Molecule Rad52-FLAG (from UniProt P06778) L363 yielded an other: interaction loss by coIP (%) with Rad51 (in yeast cells) of 27%.

With Rad52-FLAG (from UniProt P06778) T318, the other: interaction loss by coIP (%) with Rad51 (in yeast cells) was 97%.

B1: Rad51 (natural protein, S. cerevisiae, UniProt P25454 1-400, looked up)
chain: T1 chain
notes: Oligomeric alone in solution; also called full-length unlabeled Rad51
The term stoichiometry N denotes a count of units in the complex or per binding partner. As for B1, the stoichiometry N was 4 in assay [1] and 1 with Rad52 (295–408).
